Starred links: 1 amine or outer side, 2 acyl side, 3 side chain; linkers in the order of their positions; H or OH if unused. Groups on a side chain read outwards from the residue. No end group written: not given here. *: point of attachment. C18 diacid = O=C(O)CCCCCCCCCCCCCCCCC(=O)*; γGlu = O=C(O)[C@H](CCC(=O)[*:2])N[*:1]; Palmitoyl = CCCCCCCCCCCCCCCC(=O)*; AEEA = NCCOCCOCC(=O)O
Biological target: human corticotropin-releasing factor 2α (CRF2 α receptor) (human), Q13324
Experiment: cell-based or functional assay

Chain of human corticotropin-releasing factor 2α (CRF2 α receptor) (human), Q13324 (Q13324 20-411): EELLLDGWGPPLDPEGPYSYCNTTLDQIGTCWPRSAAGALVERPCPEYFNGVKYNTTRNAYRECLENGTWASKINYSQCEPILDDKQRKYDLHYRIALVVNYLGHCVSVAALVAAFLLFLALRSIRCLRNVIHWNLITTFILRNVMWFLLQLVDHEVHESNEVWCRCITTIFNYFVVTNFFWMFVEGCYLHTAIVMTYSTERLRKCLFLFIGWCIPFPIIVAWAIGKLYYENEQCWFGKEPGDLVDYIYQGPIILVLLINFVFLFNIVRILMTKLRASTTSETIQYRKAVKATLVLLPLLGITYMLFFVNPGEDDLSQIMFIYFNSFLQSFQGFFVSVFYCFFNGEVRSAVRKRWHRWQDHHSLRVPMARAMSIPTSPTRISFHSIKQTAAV

EC50 [nM], 0% HSA [nM]	EC50 [nM], 0.1% HSA [nM]	Binder
22.9		FTLSLDVPIGLK([AEEA-AEEA-γGlu-C18 diacid])QILLKQQKQKKERQQAETNVQLLERV-NH2 (N-terminus assumed; SMILES CC[C@H](C)[C@H](NC(=O)[C@H](CCC(N)=O)NC(=O)[C@H](CCCCNC(=O)COCCOCCNC(=O)COCCOCCNC(=O)CC[C@H](NC(=O)CCCCCCCCCCCCCCCCC(=O)O)C(=O)O)NC(=O)[C@H](CC(C)C)NC(=O)CNC(=O)[C@@H](NC(=O)[C@@H]1CCCN1C(=O)[C@@H](NC(=O)[C@H](CC(=O)O)NC(=O)[C@H](CC(C)C)NC(=O)[C@H](CO)NC(=O)[C@H](CC(C)C)NC(=O)[C@@H](NC(=O)[C@@H](N)Cc1ccccc1)[C@@H](C)O)C(C)C)[C@@H](C)CC)C(=O)N[C@@H](CC(C)C)C(=O)N[C@@H](CC(C)C)C(=O)N[C@@H](CCCCN)C(=O)N[C@@H](CCC(N)=O)C(=O)N[C@@H](CCC(N)=O)C(=O)N[C@@H](CCCCN)C(=O)N[C@@H](CCC(N)=O)C(=O)N[C@@H](CCCCN)C(=O)N[C@@H](CCCCN)C(=O)N[C@@H](CCC(=O)O)C(=O)N[C@@H](CCCNC(=N)N)C(=O)N[C@@H](CCC(N)=O)C(=O)N[C@@H](CCC(N)=O)C(=O)N[C@@H](C)C(=O)N[C@@H](CCC(=O)O)C(=O)N[C@H](C(=O)N[C@@H](CC(N)=O)C(=O)N[C@H](C(=O)N[C@@H](CCC(N)=O)C(=O)N[C@@H](CC(C)C)C(=O)N[C@@H](CC(C)C)C(=O)N[C@@H](CCC(=O)O)C(=O)N[C@@H](CCCNC(=N)N)C(=O)N[C@H](C(N)=O)C(C)C)C(C)C)[C@@H](C)O) [SEQ ID NO: 56]
0.63		FTLSLDVPIKLKQILLEQQKQKKERQQAETNVQLLERV-NH2 (not fully specified (residue 12); printed as FTLSLDVPIKLK*QILLEQQKQKKERQQAETNVQLLERV-NH2) [SEQ ID NO: 63]
0.01		IVLSLDVPIKLK([γGlu-Palmitoyl])KILLEQEKQEKEKQQAEKNAQILAQV-NH2 (N-terminus assumed; SMILES CCCCCCCCCCCCCCCC(=O)N[C@@H](CCC(=O)NCCCC[C@H](NC(=O)[C@H](CC(C)C)NC(=O)[C@H](CCCCN)NC(=O)[C@@H](NC(=O)[C@@H]1CCCN1C(=O)[C@@H](NC(=O)[C@H](CC(=O)O)NC(=O)[C@H](CC(C)C)NC(=O)[C@H](CO)NC(=O)[C@H](CC(C)C)NC(=O)[C@@H](NC(=O)[C@@H](N)[C@@H](C)CC)C(C)C)C(C)C)[C@@H](C)CC)C(=O)N[C@@H](CCCCN)C(=O)N[C@H](C(=O)N[C@@H](CC(C)C)C(=O)N[C@@H](CC(C)C)C(=O)N[C@@H](CCC(=O)O)C(=O)N[C@@H](CCC(N)=O)C(=O)N[C@@H](CCC(=O)O)C(=O)N[C@@H](CCCCN)C(=O)N[C@@H](CCC(N)=O)C(=O)N[C@@H](CCC(=O)O)C(=O)N[C@@H](CCCCN)C(=O)N[C@@H](CCC(=O)O)C(=O)N[C@@H](CCCCN)C(=O)N[C@@H](CCC(N)=O)C(=O)N[C@@H](CCC(N)=O)C(=O)N[C@@H](C)C(=O)N[C@@H](CCC(=O)O)C(=O)N[C@@H](CCCCN)C(=O)N[C@@H](CC(N)=O)C(=O)N[C@@H](C)C(=O)N[C@@H](CCC(N)=O)C(=O)N[C@H](C(=O)N[C@@H](CC(C)C)C(=O)N[C@@H](C)C(=O)N[C@@H](CCC(N)=O)C(=O)N[C@H](C(N)=O)C(C)C)[C@@H](C)CC)[C@@H](C)CC)C(=O)O) [SEQ ID NO: 3]
48.5		FTLSLDVPTKIK([AEEA-AEEA-γGlu-C18 diacid])QILLKQQKQKKERQKAETNVQLLERV-NH2 (N-terminus assumed; SMILES CC[C@H](C)[C@H](NC(=O)[C@H](CCC(N)=O)NC(=O)[C@H](CCCCNC(=O)COCCOCCNC(=O)COCCOCCNC(=O)CC[C@H](NC(=O)CCCCCCCCCCCCCCCCC(=O)O)C(=O)O)NC(=O)[C@@H](NC(=O)[C@H](CCCCN)NC(=O)[C@@H](NC(=O)[C@@H]1CCCN1C(=O)[C@@H](NC(=O)[C@H](CC(=O)O)NC(=O)[C@H](CC(C)C)NC(=O)[C@H](CO)NC(=O)[C@H](CC(C)C)NC(=O)[C@@H](NC(=O)[C@@H](N)Cc1ccccc1)[C@@H](C)O)C(C)C)[C@@H](C)O)[C@@H](C)CC)C(=O)N[C@@H](CC(C)C)C(=O)N[C@@H](CC(C)C)C(=O)N[C@@H](CCCCN)C(=O)N[C@@H](CCC(N)=O)C(=O)N[C@@H](CCC(N)=O)C(=O)N[C@@H](CCCCN)C(=O)N[C@@H](CCC(N)=O)C(=O)N[C@@H](CCCCN)C(=O)N[C@@H](CCCCN)C(=O)N[C@@H](CCC(=O)O)C(=O)N[C@@H](CCCNC(=N)N)C(=O)N[C@@H](CCC(N)=O)C(=O)N[C@@H](CCCCN)C(=O)N[C@@H](C)C(=O)N[C@@H](CCC(=O)O)C(=O)N[C@H](C(=O)N[C@@H](CC(N)=O)C(=O)N[C@H](C(=O)N[C@@H](CCC(N)=O)C(=O)N[C@@H](CC(C)C)C(=O)N[C@@H](CC(C)C)C(=O)N[C@@H](CCC(=O)O)C(=O)N[C@@H](CCCNC(=N)N)C(=O)N[C@H](C(N)=O)C(C)C)C(C)C)[C@@H](C)O) [SEQ ID NO: 55]

Further lines, the binder ahead of its results:

Binder	EC50 [nM], 0% HSA [nM]	EC50 [nM], 0.1% HSA [nM]
FTLSLDVPTKIKQILFKQQKQKKERQQAEKNKQLLEQI-NH2 (not fully specified (residue 12); printed as FTLSLDVPTKIK*QILFKQQKQKKERQQAEKNKQLLEQI-NH2) [SEQ ID NO: 58]	0.28	
FTLSLDVPTKIKQILLKQQKQKKERQQAEKNKQLLERV-NH2 (not fully specified (residue 12); printed as FTLSLDVPTKIK*QILLKQQKQKKERQQAEKNKQLLERV-NH2) [SEQ ID NO: 60]	0.48	
FTLSLDVPTKIKQILLKQQKQKKERQKAETNVQLLERV-NH2 (not fully specified (residue 12); printed as FTLSLDVPTKIK*QILLKQQKQKKERQKAETNVQLLERV-NH2) [SEQ ID NO: 64]	13.2	
FTLSLDVPIKLKQILLKQQKQKKERQQAETNVQLLERV-NH2 (not fully specified (residue 12); printed as FTLSLDVPIKLK*QILLKQQKQKKERQQAETNVQLLERV-NH2) [SEQ ID NO: 62]	0.8	
FTLSLDVPTKIKQILLKQQKQKKERQQAEKNKQLLEQI-NH2 (not fully specified (residue 12); printed as FTLSLDVPTKIK*QILLKQQKQKKERQQAEKNKQLLEQI-NH2) [SEQ ID NO: 59]	0.15	17.4
FTLSLDVPIGLK([AEEA-AEEA-γGlu-C18 diacid])QILLKQQKQKKERQKAETNVQLLERV-NH2 (N-terminus assumed; SMILES CC[C@H](C)[C@H](NC(=O)[C@H](CCC(N)=O)NC(=O)[C@H](CCCCNC(=O)COCCOCCNC(=O)COCCOCCNC(=O)CC[C@H](NC(=O)CCCCCCCCCCCCCCCCC(=O)O)C(=O)O)NC(=O)[C@H](CC(C)C)NC(=O)CNC(=O)[C@@H](NC(=O)[C@@H]1CCCN1C(=O)[C@@H](NC(=O)[C@H](CC(=O)O)NC(=O)[C@H](CC(C)C)NC(=O)[C@H](CO)NC(=O)[C@H](CC(C)C)NC(=O)[C@@H](NC(=O)[C@@H](N)Cc1ccccc1)[C@@H](C)O)C(C)C)[C@@H](C)CC)C(=O)N[C@@H](CC(C)C)C(=O)N[C@@H](CC(C)C)C(=O)N[C@@H](CCCCN)C(=O)N[C@@H](CCC(N)=O)C(=O)N[C@@H](CCC(N)=O)C(=O)N[C@@H](CCCCN)C(=O)N[C@@H](CCC(N)=O)C(=O)N[C@@H](CCCCN)C(=O)N[C@@H](CCCCN)C(=O)N[C@@H](CCC(=O)O)C(=O)N[C@@H](CCCNC(=N)N)C(=O)N[C@@H](CCC(N)=O)C(=O)N[C@@H](CCCCN)C(=O)N[C@@H](C)C(=O)N[C@@H](CCC(=O)O)C(=O)N[C@H](C(=O)N[C@@H](CC(N)=O)C(=O)N[C@H](C(=O)N[C@@H](CCC(N)=O)C(=O)N[C@@H](CC(C)C)C(=O)N[C@@H](CC(C)C)C(=O)N[C@@H](CCC(=O)O)C(=O)N[C@@H](CCCNC(=N)N)C(=O)N[C@H](C(N)=O)C(C)C)C(C)C)[C@@H](C)O) [SEQ ID NO: 57]	38.8	
FTLSLDVPIKLK([AEEA-AEEA-γGlu-C18 diacid])QILLKQQKQKKERQQAETNVQLLERV-NH2 (N-terminus assumed; SMILES CC[C@H](C)[C@H](NC(=O)[C@H](CCC(N)=O)NC(=O)[C@H](CCCCNC(=O)COCCOCCNC(=O)COCCOCCNC(=O)CC[C@H](NC(=O)CCCCCCCCCCCCCCCCC(=O)O)C(=O)O)NC(=O)[C@H](CC(C)C)NC(=O)[C@H](CCCCN)NC(=O)[C@@H](NC(=O)[C@@H]1CCCN1C(=O)[C@@H](NC(=O)[C@H](CC(=O)O)NC(=O)[C@H](CC(C)C)NC(=O)[C@H](CO)NC(=O)[C@H](CC(C)C)NC(=O)[C@@H](NC(=O)[C@@H](N)Cc1ccccc1)[C@@H](C)O)C(C)C)[C@@H](C)CC)C(=O)N[C@@H](CC(C)C)C(=O)N[C@@H](CC(C)C)C(=O)N[C@@H](CCCCN)C(=O)N[C@@H](CCC(N)=O)C(=O)N[C@@H](CCC(N)=O)C(=O)N[C@@H](CCCCN)C(=O)N[C@@H](CCC(N)=O)C(=O)N[C@@H](CCCCN)C(=O)N[C@@H](CCCCN)C(=O)N[C@@H](CCC(=O)O)C(=O)N[C@@H](CCCNC(=N)N)C(=O)N[C@@H](CCC(N)=O)C(=O)N[C@@H](CCC(N)=O)C(=O)N[C@@H](C)C(=O)N[C@@H](CCC(=O)O)C(=O)N[C@H](C(=O)N[C@@H](CC(N)=O)C(=O)N[C@H](C(=O)N[C@@H](CCC(N)=O)C(=O)N[C@@H](CC(C)C)C(=O)N[C@@H](CC(C)C)C(=O)N[C@@H](CCC(=O)O)C(=O)N[C@@H](CCCNC(=N)N)C(=O)N[C@H](C(N)=O)C(C)C)C(C)C)[C@@H](C)O) [SEQ ID NO: 54]	0.57	24.5
FTLSLDVPIGLKQILLKQQKQKKERQQAETNVQLLERV-NH2 (not fully specified (residue 12); printed as FTLSLDVPIGLK*QILLKQQKQKKERQQAETNVQLLERV-NH2) [SEQ ID NO: 65]	9.31	
FTLSLDVPTKIKQILLKQQKQKKERQQAETNKQLLERV-NH2 (not fully specified (residue 12); printed as FTLSLDVPTKIK*QILLKQQKQKKERQQAETNKQLLERV-NH2) [SEQ ID NO: 61]	0.38	

From patent publication US12679878B2, “CRF2 receptor agonists and their use in therapy” (SANOFI, priority 2020, dated 2026)
